{"source": "patent US20210324063A1", "molecular_target": "recombinant human VEGF-165 (R&D Systems) (human) (UniProt P15692)", "sequence (P15692 other isoform, or with tags, fused parts or gaps limits assumed)": "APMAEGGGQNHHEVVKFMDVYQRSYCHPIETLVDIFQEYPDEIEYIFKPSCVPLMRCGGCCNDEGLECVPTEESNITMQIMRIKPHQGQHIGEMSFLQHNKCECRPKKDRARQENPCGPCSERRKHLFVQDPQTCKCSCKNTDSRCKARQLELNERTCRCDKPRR"}
{"substance": "Eylea (aflibercept) (Fc fusion)", "values": [{"measurement": "IC50, inhibition of VEGF-stimulated HuRMVEC proliferation (WST-1, OD450)", "value": 0.683, "unit": "nM"}]}
